Earlier results in patent US20020019334A1, “Nutritional intervention composition for enhancing and extending satiety” (priority 2000, published 2002).

Settings: injection, humans

B1: Cholecystokinin (peptide, UniProt P06307 21-115, looked up)
Cholecystokinin: QPVPPADPAGSGLQRAEEAPRRQLRVSQRTDGESRAHLGALLARYIQQARKAPSGRMSIVKNLQNLDPSHRISDRDYMGWMDFGRRSAEEYEYPS
modifications: Cholecystokinin
decrease of food intake: 16%
